Source: patent EP4790144A1 (Peking Union Medical College Hospital, dated 2026)
Positions count from the first letter of the chain named.

B1: 07PC17 (antibody, V domains shown)
VH: QLQLVQSGPEVKKPGETVKISCKASGYAFTNYGMNWVKQAPGKDLKWMGWINTYTGDPVYGDDFKGRFAFSLDTSASTAYLQINNLKNEDTATYFCVREPIYYGWVDYWGQGTSVTVSS
VL: DIVMTQAAPSVPVTPGESASISCRSSKSLLHRNGNTYLYWFLQRPGQSPQVLIYRMSNLASGVPDRFSGSGSGTAFTLRISRVEAEDVGVYYCMQHLEYPYTFGGGTKLEIK
B2: 07PC03 (antibody, V domains shown)
VH: B1 VH with N52K, P58S, N85D
VL: B1 VL
B3: 07PC27 (antibody, V domains shown)
VH: B1 VH with V11L, A40T, D44G, T55S, D57E, P58T, V59T, D73E, N85S
VL: B1 VL with A19V
B4: 07TE02 (antibody, V domains shown)
VH: DVKLVESGGGLVKPGGSLKLSCAASGLTFSIYAMSWVRQTPEKRLEWVATISAGDIYPYYSDSVKGRFAISRDNAKNTLYLQMSSLRSEDTAIYYCTSITMAMAYWGQGTLVTVSA
VL: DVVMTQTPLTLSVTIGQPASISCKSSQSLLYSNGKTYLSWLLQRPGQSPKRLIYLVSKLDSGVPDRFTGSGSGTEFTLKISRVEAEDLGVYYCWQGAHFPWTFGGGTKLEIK
B5: 07TE08 (antibody, V domains shown)
VH: B4 VH with L27F, Y80F
VL: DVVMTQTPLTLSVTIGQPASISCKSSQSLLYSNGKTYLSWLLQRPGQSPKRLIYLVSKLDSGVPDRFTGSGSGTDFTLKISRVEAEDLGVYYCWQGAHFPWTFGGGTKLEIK
B6: 07PC08 (antibody, V domains shown)
VH: EVKLEESGGGLVQPGGSMKLSCGASGFTFSDAWMDWVRQSPEKGLEWVAEIRSKAINHATYYAESVKGRFTISRDDSKSSVYLQMNSLRAEDTGIYYCTRRVDWYFDVWGAGTTVTVSS
VL: DILLTQSPAILSVSPGERVSFSCRASQSIGTSIYWYQQRTNGSPRLLIKYASESISGIPSRFSGSGSGTDFTLSINSVESEDIADYYCQQSNSWPLTFGAGTKLELK
B7: 07PC09 (antibody, V domains shown)
VH: IVMLVESGGGLVKPGGSLKLSCVASGFTFSTYAMSWIRQTPEKRLAWVATISSGGSSTYYSDSVKGRFTISRDNAKNTLYLQMSSLRSEDTAMYYCARHGDWDGSLAYWGQGTQVTVSA
VL: DIVMTQSHKLMSTSVGDRVNITCKASQDVNAAVAWYQQQPGQSPKLLFYWASTRHTGVPDRFTGSGSRTDYTLTISGVQAEDLALYYCQQHYSAPRTFGGGTKLEVK
B8: 07PC28 (antibody, V domains shown)
VH: QIQLVQSGPELKKPGETVKISCKTSGYTFTDFGMNWVKRAPGQDLKWMGWINTYTGATTYGDEFKGRFAFSLETSASTASLQINNLKNEDSATYFCVREPLYYGWVDYWGQGTSVIVSS
VL: B1 VL with A7V, A19V
B9: 07TE04 (antibody, V domains shown)
VH: QVQLQQSGAELVKPGASVKLSCKASGYTFTRYYLYWVKQRPGQGLEWIGKINPTNGVADLNEKFKYKATLTVDKSSSTTHMQLSSLTSEDSAVYYCTRVYYKYDGFAYWGQGTLVTVSA
VL: DIVMTQSLKFMSTSVGDRVSIICKASQDVGTAVAWYQQKPAQSPKLLIYWASTRHTGVPDRFTGSGSGTDFTLTISNVQSEDLTDYFCQQYSSYPLTFGGGTKLEIK

Biological target: T1, 2023-601 project-ABCD1 protein (human, UniProt P33897 650-745)
T1 construct: also called antigen protein ABCD1
T1 sequence: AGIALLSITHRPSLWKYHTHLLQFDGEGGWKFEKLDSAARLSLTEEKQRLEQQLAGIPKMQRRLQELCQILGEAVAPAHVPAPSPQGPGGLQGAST
Experiment: ELISA, ABCD1 protein coated at 2 ug/mL, HRP goat anti-mouse secondary antibody

Binder	binding result
B1	binds
B2	binds
B3	binds
B4	binds
B5	binds
B6	binds
B7	binds
B8	binds
B9	binds
